Experimental data published in PMC9445180 (2022).

How the values were obtained:
HTRA3^PD/PDZ-LoopA^HTRA1 = biological target: T1, HTRA3^PD/PDZ-LoopA^HTRA1 (human, UniProt P83110 130-160; P83110 171-453); assay: SPR
T1 chain: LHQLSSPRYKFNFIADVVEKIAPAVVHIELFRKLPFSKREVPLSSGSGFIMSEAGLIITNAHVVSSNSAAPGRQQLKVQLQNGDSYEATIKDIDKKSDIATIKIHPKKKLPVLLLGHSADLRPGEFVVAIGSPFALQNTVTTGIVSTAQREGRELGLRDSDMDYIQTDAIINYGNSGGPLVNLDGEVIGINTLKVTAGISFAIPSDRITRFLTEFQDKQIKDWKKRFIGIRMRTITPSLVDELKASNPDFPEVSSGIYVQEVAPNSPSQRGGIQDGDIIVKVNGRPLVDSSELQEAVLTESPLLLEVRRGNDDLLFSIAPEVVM

HTRA2^PD/PDZ-LoopA^HTRA1 = biological target: T2, HTRA2^PD/PDZ-LoopA^HTRA1 (human, UniProt O43464 134-167; O43464 178-458); assay: SPR
T2 chain: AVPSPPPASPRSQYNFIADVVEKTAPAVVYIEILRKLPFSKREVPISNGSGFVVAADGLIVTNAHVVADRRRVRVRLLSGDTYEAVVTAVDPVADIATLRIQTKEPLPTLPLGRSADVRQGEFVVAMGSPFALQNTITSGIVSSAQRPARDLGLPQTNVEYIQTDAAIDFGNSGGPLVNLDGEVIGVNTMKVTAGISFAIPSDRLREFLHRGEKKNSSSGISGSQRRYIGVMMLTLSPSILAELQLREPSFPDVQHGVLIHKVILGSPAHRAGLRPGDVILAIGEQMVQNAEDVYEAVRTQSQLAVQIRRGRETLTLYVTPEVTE

Kd (HTRA3^PD/PDZ-LoopA^HTRA1): 0.0356 nM | Kd (HTRA2^PD/PDZ-LoopA^HTRA1): 0.0526 nM
B1: Fab15H6.v4 (Fab, V domains shown)
VH: EVQLVQSGAEVKKPGASVKVSCKASGYKFTDSEMHWVRQAPGQGLEWIGGVDPETEGAAYNQKFKGRATITRDTSTSTAYLELSSLRSEDTAVYYCTRGYDYDYALDYWGQGTLVTVSS
VL: DIQMTQSPSSLSASVGDRVTITCRASSSVEFIHWYQQKPGKAPKPLISATSNLASGVPSRFSGSGSGTDFTLTISSLQPEDFATYYCQQWSSAPWTFGQGTKVEIK
